T1: Human MerTK on hMerTK-expressing cells (human, UniProt Q12866 21-999)
T1 sequence: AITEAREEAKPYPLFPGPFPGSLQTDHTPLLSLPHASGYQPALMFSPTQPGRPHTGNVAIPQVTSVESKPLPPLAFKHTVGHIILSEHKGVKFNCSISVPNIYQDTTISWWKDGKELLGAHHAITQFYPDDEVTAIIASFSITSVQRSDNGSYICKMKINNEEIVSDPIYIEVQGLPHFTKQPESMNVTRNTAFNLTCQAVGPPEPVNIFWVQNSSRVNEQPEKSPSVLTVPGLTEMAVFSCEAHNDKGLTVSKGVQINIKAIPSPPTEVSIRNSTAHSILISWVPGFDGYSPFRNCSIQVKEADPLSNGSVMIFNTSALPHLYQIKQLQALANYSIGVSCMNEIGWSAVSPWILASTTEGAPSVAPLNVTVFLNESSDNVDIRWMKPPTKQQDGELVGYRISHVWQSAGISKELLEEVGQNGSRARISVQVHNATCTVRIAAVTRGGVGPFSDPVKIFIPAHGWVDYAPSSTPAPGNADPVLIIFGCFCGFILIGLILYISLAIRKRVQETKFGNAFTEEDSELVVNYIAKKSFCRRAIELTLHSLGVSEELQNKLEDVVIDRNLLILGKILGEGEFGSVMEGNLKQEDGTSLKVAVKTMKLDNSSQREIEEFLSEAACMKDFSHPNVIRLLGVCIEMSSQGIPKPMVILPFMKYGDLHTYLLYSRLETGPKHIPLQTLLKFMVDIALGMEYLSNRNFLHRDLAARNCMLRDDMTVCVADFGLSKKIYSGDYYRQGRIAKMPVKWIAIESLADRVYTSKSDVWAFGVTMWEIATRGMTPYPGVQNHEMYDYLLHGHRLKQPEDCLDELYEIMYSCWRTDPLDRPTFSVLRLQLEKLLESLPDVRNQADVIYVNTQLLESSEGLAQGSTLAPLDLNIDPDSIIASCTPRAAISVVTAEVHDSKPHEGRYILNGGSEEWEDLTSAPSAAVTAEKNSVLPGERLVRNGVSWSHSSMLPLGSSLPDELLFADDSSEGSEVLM

T2: Recombinant soluble extracellular domain of human MerTK (human, UniProt Q12866 21-505)
T2 construct: SPR analyte; also called hMerTK
T2 sequence: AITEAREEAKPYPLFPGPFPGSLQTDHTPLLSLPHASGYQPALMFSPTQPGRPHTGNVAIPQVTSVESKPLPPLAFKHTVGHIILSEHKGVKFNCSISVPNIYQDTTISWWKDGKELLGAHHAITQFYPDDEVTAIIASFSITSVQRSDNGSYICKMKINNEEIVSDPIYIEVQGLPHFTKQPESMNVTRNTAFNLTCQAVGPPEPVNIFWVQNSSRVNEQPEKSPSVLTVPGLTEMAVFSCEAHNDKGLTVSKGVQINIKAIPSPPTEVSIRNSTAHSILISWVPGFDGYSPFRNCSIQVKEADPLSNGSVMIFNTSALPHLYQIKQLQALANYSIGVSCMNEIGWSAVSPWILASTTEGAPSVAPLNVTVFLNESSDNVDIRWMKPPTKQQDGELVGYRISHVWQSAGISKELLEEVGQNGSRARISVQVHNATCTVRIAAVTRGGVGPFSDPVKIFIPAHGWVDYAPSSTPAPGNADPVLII

T3: Recombinant soluble extracellular domain of cynomolgus monkey MerTK (cynomolgus monkey, UniProt Q12866 21-505 (human entry))
T3 construct: SPR analyte; also called cMerTK; Cynomolgus MerTK
T3 chain: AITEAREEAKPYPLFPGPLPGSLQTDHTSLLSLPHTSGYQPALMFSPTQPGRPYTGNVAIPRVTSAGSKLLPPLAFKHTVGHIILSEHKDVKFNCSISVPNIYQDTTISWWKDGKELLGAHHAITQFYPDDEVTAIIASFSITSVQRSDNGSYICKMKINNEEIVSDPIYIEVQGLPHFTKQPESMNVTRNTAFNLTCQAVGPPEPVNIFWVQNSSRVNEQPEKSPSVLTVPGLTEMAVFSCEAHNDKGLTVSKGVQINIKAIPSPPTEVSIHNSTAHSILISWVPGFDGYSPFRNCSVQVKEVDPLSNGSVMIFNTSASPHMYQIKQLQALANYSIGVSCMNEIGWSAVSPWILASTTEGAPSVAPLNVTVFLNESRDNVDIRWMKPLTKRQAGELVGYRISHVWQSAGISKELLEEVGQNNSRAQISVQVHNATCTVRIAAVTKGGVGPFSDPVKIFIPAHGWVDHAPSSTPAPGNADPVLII

T4: Recombinant soluble extracellular domain of mouse MerTK (mouse, UniProt Q60805 19-497)
T4 construct: SPR analyte; also called mMerTK
T4 sequence: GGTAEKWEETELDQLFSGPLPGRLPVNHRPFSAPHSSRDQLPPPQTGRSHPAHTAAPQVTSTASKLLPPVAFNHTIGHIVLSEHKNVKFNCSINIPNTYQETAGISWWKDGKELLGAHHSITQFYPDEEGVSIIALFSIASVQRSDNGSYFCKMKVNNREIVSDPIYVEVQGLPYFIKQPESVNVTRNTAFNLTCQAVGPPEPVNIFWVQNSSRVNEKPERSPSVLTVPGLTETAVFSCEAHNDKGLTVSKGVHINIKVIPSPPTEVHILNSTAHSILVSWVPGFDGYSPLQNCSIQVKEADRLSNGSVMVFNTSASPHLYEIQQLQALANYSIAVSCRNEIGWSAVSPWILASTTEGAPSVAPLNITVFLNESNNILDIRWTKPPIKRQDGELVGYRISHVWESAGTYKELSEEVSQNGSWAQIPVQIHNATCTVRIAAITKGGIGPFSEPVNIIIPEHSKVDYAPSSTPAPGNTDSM


Assays:
[1] = target: T1, Human MerTK on hMerTK-expressing cells; assay: cell-based or functional assay
[2] = target: T2, Recombinant soluble extracellular …; assay: SPR, mAb captured, soluble MerTK ECD as analyte, 37 C
Experimental: (§1) MerTK Abs were captured on the chip. Recombinant soluble forms of the extracellular domains of human, cynomolgus monkey, and mouse MerTK polypeptide were injected as analytes at multiple concentrations each. The resulting sensorgrams were double-referenced and fitted to a 1:1 Langmuir binding model with mass transport.

[3] = target: T3, Recombinant soluble extracellular …; assay: as above
Experimental: as §1

[4] = target: T4, Recombinant soluble extracellular …; assay: as above
Experimental: as §1

Row | Signaling Assay, hMerTK with Gas6, pSTAT1 IC50 (nM) [1] | Kd [2] | koff [2] | kon [2] | t1/2 [2] | Kd [3] | koff [3] | kon [3] | t1/2 [3] | Kd [4] | koff [4] | kon [4] | t1/2 [4] | Inhibition of Efferocytosis IC50 [1] | Signaling Assay, hMerTK without Gas6, pSTAT1 IC50 (nM) [1] | Binder
1 | 1.37 nM | 24.8 nM | 0.00146 s⁻¹ | 58900 M⁻¹ s⁻¹ | 7.9 min | 27 nM | 0.00151 s⁻¹ | 55900 M⁻¹ s⁻¹ | 7.7 min | 13.7 nM | 0.00123 s⁻¹ | 89500 M⁻¹ s⁻¹ | 9.4 min | – | – | Humanized MAb 2L105 (antibody, human IgG1, lambda, V domains shown, Humanized variant of moMAb 2D9, Bin 2) VH: QVTLKESGPVLVKPTETLTLTCTVSGISLSSFAISWIRQPPGKALEWLAVIWTGGGTDYNSALKSRLTISKDTSKSQVVLTMTNMDPVDTATYYCASHWYLDVWGQGTTVTVSS VL: QTVVTQEPSFSVSPGGTVTLTCRSSTGAVSTSNYANWVQQTPGQAPRGLIGGANSRAPGIPDRFSGSILGNKAALTITGAQADDESDYYCALWFSNHWVFGGGTKLTVLG
2 | 8.88 nM | 50.8 nM | 0.00134 s⁻¹ | 26400 M⁻¹ s⁻¹ | 8.6 min | 42.5 nM | 0.00137 s⁻¹ | 32200 M⁻¹ s⁻¹ | 8.4 min | 47.1 nM | 0.00249 s⁻¹ | 52900 M⁻¹ s⁻¹ | 4.6 min | – | – | Humanized mAb 4M60 (antibody, human IgG1, kappa, V domains shown, Humanized variant of moMAb 4E9, Bin 2) VH: QVQLVQSGSELKKPGASVKVSCKASGNTFTTYGMSWVRQAPGQGLEWMGWINNYSGVSTYADDFKGRFVFSLDTSVSTAYLQISSLKAEDTAVYYCARDYYGSGGWVFDYWGQGTTVTVSS VL: DVVMTQSPLSLPVTLGQPASISCKSSQSLLDSEGKTYLNWLQQRPGQSPRRLMYLVSKLDSGVPDRFSGSGSGTDFTLKISRVEAEDVGVYYCWQGTHFPRTFGGGTKVEIKR
3 | 1.13 nM | 9 nM | 0.00117 s⁻¹ | 132000 M⁻¹ s⁻¹ | 9.9 min | 22.5 nM | 0.00235 s⁻¹ | 108000 M⁻¹ s⁻¹ | 4.9 min | – | – | – | – | 0.169 nM | > 100 nM | HuMAb 10K11 (antibody, human IgG1, kappa, V domains shown, Human anti-hMerTK mAb, Bin 1) VH: QLQLQESGPGLVKPSETLSLTCAVSGYSISSDYSWGWIRQPPGKGLEWIGSIYHSGNTYFNPSLKSRVTISVDTSKNQFSLKLSSVTAADTAVYYCARDKSYYFGPGSMDVWGQGTTVTVSS VL: AIQLTQSPSSLSASVGDRVTITCRASQGISSALAWYQQKPGKAPKLLIYDASSLESGVPSRFSGSGSGTDFTLTISSLQPEDFATYYCQQFKSYLTFGQGTRLEIKR

Source: US20210395392A1 (Bristol-Myers Squibb, published 2021)
